According to PMC4072690 (PLoS ONE, 2014):

B1: Ab53 mouse monoclonal antibody (IgG2a,κ) specific for FtGroEL (antibody, V domains shown)
VH: EVKLLESGGGLVQPGGSMKLSCVASGFTFSIFWMNWVRQSPEKGLEWVAEVRLKSNNYATHYAESVKGRFTISRDDSKSGVYLQMNNLRAEDTGIYYCTRGYYGSNYGEYWGQGTTLTVSS
VL: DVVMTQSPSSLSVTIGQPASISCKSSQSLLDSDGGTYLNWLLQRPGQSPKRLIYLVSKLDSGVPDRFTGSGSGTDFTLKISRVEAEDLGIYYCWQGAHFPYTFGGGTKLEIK
notes: also called Ab53 IgG
B2: Ab53 Fab (Fab, V domains shown)
VH: B1 VH
VL: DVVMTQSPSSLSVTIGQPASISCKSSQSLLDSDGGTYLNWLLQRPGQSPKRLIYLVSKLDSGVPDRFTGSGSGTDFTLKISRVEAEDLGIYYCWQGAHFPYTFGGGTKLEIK
notes: also called Fab fragment of Ab53; source: cleavage of purified Ab53 IgG with the Pierce Fab Preparation Kit
B3: Ab64 mouse monoclonal antibody (IgG2a,κ) specific for FtGroEL (antibody, V domains shown)
VH: EVQLLESGPELVRLGASVKVSCKASGYSFTDYNMYWVKQSHGKSLEWIGYIDPYNGDASYNQKFKGKATLTVDKSSSTAFMHLNSLTSEDSAVYYCARTGYYYGRSYAMDYWGQGTSVTVSS
VL: DIVMTQAAPSVPVTPGESVSISCRSSKSLLHSNGNTYLYWFLQRPGQSPQLLIYRMSNLASGVPDRFSGSGSGTAFTLRISKVEAEDVGVYYCMQHLEYPYTFGGGTKLDVK
notes: also called Ab64 IgG
B4: Ab64 Fab (Fab, V domains shown)
VH: B3 VH
VL: B3 VL
notes: also called Fab fragment of Ab64; source: cleavage of purified Ab64 IgG with the Pierce Fab Preparation Kit

Columns and labels:
[1] = target: T1, purified FtGroEL used in the DXMS experiments (Francisella tularensis, strain not …, UniProt Q5NEE1); experiment: HDX-MS; conditions: both partners purified
T1 construct: copies: 14

[2] = target: GroEL of Francisella tularensis LVS, endogenous (Francisella tularensis subsp. …, UniProt P94798, strain); experiment: competition Western blot; conditions: one partner purified
[3] = target: Francisella tularensis LVS recombinant GroEL with N-terminal His tag (Francisella tularensis subsp. …, UniProt P94798, strain); experiment: ELISA; conditions: one partner purified
[4] = target: T2, Francisella tularensis SchuS4 recombinant GroEL with N-terminal His tag (Francisella tularensis subsp. …, UniProt Q5NEE1); experiment: ELISA; conditions: one partner purified
T2 construct: source: E. coli BL21(DE3)pLysS, pET14b, IPTG induced, in BugBuster lysate; not shown: His6, N-terminal, kept

[5] = target: T3, GroEL of Francisella tularensis SchuS4, endogenous (Francisella tularensis subsp. …, UniProt Q5NEE1); experiment: ELISA; conditions: one partner purified
T3 construct: source: endogenous, SchuS4 NP40 lysate

[6] = target: T4, Escherichia coli GroEL, endogenous (Escherichia coli TG1 (K-12) and BL21, UniProt P0A6F5); experiment: Western blot; conditions: one partner purified
T4 construct: also called EcGroEL

[7] = target: T4, Escherichia coli GroEL, endogenous; experiment: ELISA; conditions: one partner purified
[8] = target: T2, Francisella tularensis SchuS4 …; experiment: Western blot; conditions: one partner purified

Binder	binding result [1]	binding result [2]	binding result [3]	binding result [4]	binding result [5]	binding result [6]	binding result [7]	binding result [8]
B1	binds	binds	binds	binds	binds	binds		
B2	binds							
B3	binds	binds	binds		binds		no binding	binds
B4	binds							
